# Test results published in patent publication US20240174744A1 (SCIRHOM, published 2024).
# Changes are numbered by the printed parent chain.
# T1: hiR2-FL-P533-T7 (human iRhom2 full length with deletion of P533, 3 x T7 tag) (human, UniProt Q6PJF5 1-856)
# T1 construct: The change is a deletion of one residue, not a substitution
# T1 sequence: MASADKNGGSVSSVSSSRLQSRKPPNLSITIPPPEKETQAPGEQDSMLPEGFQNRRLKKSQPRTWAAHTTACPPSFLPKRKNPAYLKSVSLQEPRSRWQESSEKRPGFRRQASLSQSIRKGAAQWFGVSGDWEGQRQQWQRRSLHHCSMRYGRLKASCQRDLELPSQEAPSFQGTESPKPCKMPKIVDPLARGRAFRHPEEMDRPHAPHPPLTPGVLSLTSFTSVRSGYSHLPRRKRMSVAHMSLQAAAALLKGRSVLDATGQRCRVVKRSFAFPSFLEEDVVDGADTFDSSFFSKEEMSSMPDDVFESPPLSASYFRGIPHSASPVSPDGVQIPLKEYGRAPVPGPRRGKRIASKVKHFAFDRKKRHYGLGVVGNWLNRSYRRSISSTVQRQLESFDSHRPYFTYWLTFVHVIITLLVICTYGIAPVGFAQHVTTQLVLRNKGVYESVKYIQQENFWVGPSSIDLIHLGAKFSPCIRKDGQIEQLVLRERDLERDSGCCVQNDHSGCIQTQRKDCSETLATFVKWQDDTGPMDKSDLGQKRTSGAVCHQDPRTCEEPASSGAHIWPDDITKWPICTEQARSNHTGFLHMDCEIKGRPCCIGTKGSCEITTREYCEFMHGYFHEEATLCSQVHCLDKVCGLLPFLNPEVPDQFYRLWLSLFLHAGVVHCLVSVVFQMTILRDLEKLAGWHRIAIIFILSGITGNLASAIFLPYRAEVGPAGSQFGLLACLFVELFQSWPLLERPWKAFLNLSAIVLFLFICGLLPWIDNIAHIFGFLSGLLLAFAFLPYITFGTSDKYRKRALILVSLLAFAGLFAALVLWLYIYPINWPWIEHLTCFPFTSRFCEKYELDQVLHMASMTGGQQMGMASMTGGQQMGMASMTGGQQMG
# B1: antibody 43 (antibody, V domains shown)
# VH: QVALKESGPGILQPSQTLSLTCSFSGFSLSTFGMGVGWIRQSSGKGLEWLANIWWDDDKYYNPALKSRLTISKDASKNQAFLKIANVDTADTATYYCARIGNYGSNYWYFDVWGTGTTVTVSS
# VL: QIVLTQSPAIMSASPGERVTMTCSANSRISYMYWYQQKPGSSPRLLIYDTSNLASGVPVRFSGSGSGTSYSLTISRMEAEDAATYNCQQWSSYPLTFGAGTKLELK
# notes: Mouse IgG, kappa light chain; also called clone #43
# B2: antibody 5 (antibody, V domains shown)
# VH: B1 VH with A3T, S42P, N52H, D58E, P63S, D74A, A75T, G101S, D111N
# VL: QVVLTQSPALMSASPGEKVTMTCSAGSSVSCMYWYQQKPGSSPRVLIYDTSNLASGVPARFTGSGSGTSYSLTISRMEAEDAASYYCQQWNSYPLTFGAGTKLELK
# notes: Mouse IgG, kappa light chain; also called clone #5; purified antibody 5
# B3: antibody 42 (antibody, V domains shown)
# VH: B1 VH with A3T, F24L, M34R, S42P, N52H, D58E, A75T, A80V, K83R, G101Q
# VL: B1 VL with Q1L, R18K, S24G, N26T, Y33F, L45V, M77V, A82V, N86Y, S91N
# notes: Mouse IgG, kappa light chain; also called clone #42; m42
# B4: antibody 44 (antibody, V domains shown)
# VH: B1 VH with A3T, S42P, G44E, N52H, A75T, A80I, A85T, D91E, A98S
# VL: QIVLTQSPAVMSASPGEKVTMTCTASSSVYYMYWYQQTPGSSPRLLIYDTSNLASGVPVRFSGSGSGTSYSLTISRMEAEDAATYYCQQWNTYPLTFGAGTKLELK
# notes: Mouse IgG, kappa light chain; also called clone #44; m44
# B5: antibody 22 (antibody, V domains shown)
# VH: B1 VH with A3T, S42P, N52H, D58E, P63S, D74A, A75T, A80V, G101S, D111N
# VL: B2 VL with C31Y, S84T
# notes: Mouse IgG, kappa light chain; also called clone #22; m22
# B6: antibody 16 (antibody, V domains shown)
# VH: QVTLKESGPGILQPSQTLSLTCSFSGFSLSTFALGVGWIRQPSGRGLEWLAHIWWDDDKYYNPALKSRLTISKDTSKNHVFLKIANVDTADTATYYCARITTYYYGMDYWGQGTSVTVSS
# VL: DIVLSQSPATLSVTPGDSVSLFCRASQSIGNHLHWYQQESHASPRLLIKYASQSISGIPSRFSGSGSGTDFTLSINSVETEDFGMYFCQQSYNWPLTFGAGTKLELK
# notes: Mouse IgG, kappa light chain; also called clone #16; m16
# B7: antibody 3 (antibody, V domains shown)
# VH: QVTLKESGPGILQPSQTLSLTCSFSGFSLTTFAMGIGWVRQPSGKGLEWLAHIWWDGEKYNNPVLKSRLTISKDTSKNQVFLRIANVDTPDTATYYCARISSIYYIIDNWGQGTSVTVSS
# VL: B6 VL with S5T, D17H, F22S, G30S, H32N, Q38K, E39K, A42E, A51V
# notes: Mouse IgG, kappa light chain; also called clone #3; purified antibody 3
# B8: antibody 34 (antibody, V domains shown)
# VH: QVTLKESGPGILQPSQTLSLTCSFSGFSLSTFSLGVGWIRQSSGKGLEWLAHIWWDDEKYYNPALKSRLTISKDTSKNQVFLKIANVDAADTATYYCARAYYSKSYYALDYWGQGTSVTVSS
# VL: DIQMTQSPSSLSASLGERVSLTCRASQEISGYLSWLQQKPDGTIKRLIYAASTLDSGVPKRFSGSRSGSDYSLAISSLESEDFADYYCLQYANFPFTFGSGTKLEIK
# notes: Mouse IgG, kappa light chain; also called clone #34; m34
# Target: T1, hiR2-FL-P533-T7 (human iRhom2 full …)
# Experiment: FACS on cells of the row P533-, vs human iR2 wild type = 100%
# Excerpt: In brief, immortalized MEF-DKO-hiR2-FL-WT-T7 cells, MEF-DKO-miR2-FL-WT-T7 cells and MEF-DKO-hiR2-FL-R441K-T7, MEF-DKO-hiR2-FL-K443R-T7, MEF-DKO-hiR2-FL-V459I-T7, MEF-DKO-hiR2-FL-G481Q-T7, MEF-DKO-hiR2-FL-L488R-T7, MEF-DKO-hiR2-FL-L493I-T7, MEF-DKO-hiR2-FL-D496T-T7, MEF-DKO-hiR2-FL-H505R-T7, MEF-DKO-hiR2-FL-Q512L-T7, MEF-DKO-hiR2-FL-R513K-T7, MEF-DKO-hiR2-FL-D528N-T7, MEF-DKO-hiR2-FL-P533-T7, MEF-DKO-hiR2-FL-M534S-T7, MEF-DKO-hiR2-FL-G540S-T7, MEF-DKO-hiR2-FL-R543Q-T7, MEF-DKO-hiR2-FL-T544P-T7, MEF-DKO-hiR2-FL-G546A-T7, MEF-DKO-hiR2-FL-A547V-T7, MEF-DKO-hiR2-FL-R582Q-T7, MEF-DKO-hiR2-FL-F588L-T7, MEF-DKO-hiR2-FL-M591I-T7, MEF-DKO-hiR2-FL-E594K-T7, MEF-DKO-hiR2-FL-E626D-T7, MEF-DKO-hiR2-FL-L657I-T7, and MEF-DKO-hiR2-FL-H835Y-T7 cells were harvested with 10 mM EDTA in PBS, washed and resuspended in FACS buffer (PBS, 3% FBS, 0.05% sodium azide), and seeded in Nunc U-bottom 96-well plates (Thermo Fisher Scientific, USA) at approximately 3×10⁵ cells per well. To pellet cells and remove supernatants, the plates were centrifuged at 1,500 rpm and 4° C. for 3 minutes. For primary staining, cells were resuspended in 100 μl per well of either FACS buffer alone (controls) or the purified antibodies 3, 5, 16, 22, 34, 42, 43, 44, 48, and 50 of the present disclosure at 3 μg/ml FACS buffer and incubated on ice for 1 hour. Afterwards, plates were centrifuged at 1,500 rpm and 4° C. for 3 minutes and washed twice with 200 μl per well of FACS buffer. For secondary staining, cells were spun down and resuspended in 100 μl per well of PE-conjugated goat anti-mouse IgG F(ab′)2 detection fragment (Dianova, Germany) diluted 1:100 in FACS buffer. Protected from light, the cell suspensions were incubated on ice for 1 hour. Plates were then centrifuged at 1,500 rpm and 4° C. for 3 minutes and washed three times with 200 μl per well of FACS buffer. Finally, cells were resuspended in 150 μl per well of FACS buffer and analyzed using a BD Accuri™ C6 Plus flow cytometer (Becton Dickinson, Germany).
row,Binder,grade of loss of binding vs wild type
1,B1,3 grade (3 => 95% loss of binding vs wild type)
2,B2,3 grade (3 => 95% loss of binding vs wild type)
3,B3,3 grade (3 => 95% loss of binding vs wild type)
4,B4,3 grade (3 => 95% loss of binding vs wild type)
5,B5,3 grade (3 => 95% loss of binding vs wild type)
6,B6,3 grade (3 => 95% loss of binding vs wild type)
7,B7,3 grade (3 => 95% loss of binding vs wild type)
8,B8,3 grade (3 => 95% loss of binding vs wild type)
